This is an account of results in patent EP4725965A1 (Sunshine Guojian Pharmaceutical (Shanghai) Co., Ltd., dated 2026).

One assay addresses T1, human BDCA2-Fc protein (human, UniProt Q8WTT0 45-213).
T1 sequence: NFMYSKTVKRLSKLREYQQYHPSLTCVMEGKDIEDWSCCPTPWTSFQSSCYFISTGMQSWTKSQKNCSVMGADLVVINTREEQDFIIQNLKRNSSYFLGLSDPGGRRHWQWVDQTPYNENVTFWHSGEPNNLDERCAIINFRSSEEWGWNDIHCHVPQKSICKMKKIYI
The assay can be described thus: ELISA, BDCA2-Fc coated at 1 ug/mL.

Assay [1] addresses human BDCA2 on cells (293FT-BDCA2 stable transfectant) (human) (UniProt Q8WTT0). The assay can be described thus: flow cytometry (FACS) on 293FT-BDCA2 cells. In general terms: In flow cytometry, cells or beads pass a laser one at a time.
The target is the same in assay [2]. The assay can be described thus: flow cytometry (FACS) on 293FT-BDCA2 cells. This is another data set of the same source.
The target of assay [3] is T2, human BDCA2-his protein (human, UniProt Q8WTT0 45-213).
T2 construct: also called BDCA2-his antigen protein
T2 sequence: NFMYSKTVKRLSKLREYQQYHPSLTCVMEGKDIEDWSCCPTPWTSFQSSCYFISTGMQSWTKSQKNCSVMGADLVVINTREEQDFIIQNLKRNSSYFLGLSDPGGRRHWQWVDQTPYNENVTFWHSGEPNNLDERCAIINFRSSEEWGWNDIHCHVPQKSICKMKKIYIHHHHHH
The assay can be described thus: SPR, Biacore 8K, antibody captured on Protein A chip, BDCA2-his as analyte. On the technique in general: Surface plasmon resonance follows binding to a sensor surface in real time, without labels.

For assay [4], the target named is T2, human BDCA2-his protein. Nature of the assay: ELISA, BDCA2-his coated at 0.1 ug/mL, anti-human Fc HRP.

Read-outs that look alike come from different tables or passages of the source.

For the molecule “positive control antibody Litifilimab (BIIB059, 24F4A)”, the EC50 in the assay with human BDCA2-Fc protein is 0.0346 µg/mL; with human BDCA2-Fc protein (record 2) it was 0.0463 µg/mL; in assay [1] it was 0.103 µg/mL; in assay [2], 0.124 µg/mL. For the same molecule, the Kd with human BDCA2-his protein [3] was determined as 0.087 nM. Besides, the koff with human BDCA2-his protein [3] came to 0.000121 s⁻¹. For the same molecule, the kon with human BDCA2-his protein [3] is 1.39e+06 M⁻¹ s⁻¹.

B1: humanized antibody 230 (antibody, V domains shown)
VH: QVQLVQSGAEVKKPGASVKVSCKASGYTFTSYIIHWVRQAPGQGLEWMGTIYPGNGDTSYNQKFKGRVTMTRDTSTSTVYMELSSLRSEDTAVYYCARMGDNEYFDYWGQGTLVTVSS
VL: DIQMTQSPSSLSASVGDRVTITCRASGNIHNYLAWYQQKPGKAPKLLLYDAETLADGVPSRFSGSGSGTDYTLTISSLQPEDFATYYCQHFWSTPYTFGGGTKVEIK
notes: Human IgG1 constant region and human kappa chain constant region; also called 230 antibody; parental monoclonal antibody 230
For B1, in the assay with human BDCA2-his protein [3], the affinity, expressed as Kd, was 0.0768 nM; the koff was 0.00131 s⁻¹; the kon worked out at 1.7e+07 M⁻¹ s⁻¹.

B2: antibody 237011 (antibody, human IgG1, V domains shown)
VH: QVQLVQSGAEVKKPGASVKVSCKASGYTFTSYLIHWVRQAPGQGLEWMGTIYPGGGDTSYNQKFKGRVTMTRDTSTSTVYMELSSLRSEDTAVYYCARMGDNEYFDYWGQGTLVTVSS
VL: DIQMTQSPSSLSASVGDRVTITCRASGNIHNYLAWYQQKPGKAPKLLLYDAETLAEGVPSRFSGSGSGTDYTLTISSLQPEDFATYYCQHFWSTPYTFGGGTKVEIK
In the assay with human BDCA2-his protein [3], B2 displayed a Kd of 0.0259 nM, a koff of 0.000652 s⁻¹ and a kon of 2.52e+07 M⁻¹ s⁻¹.

B3: 230NR-DE (antibody, V domains shown)
VH: QVQLVQSGAEVKKPGASVKVSCKASGYTFTSYIIHWVRQAPGQGLEWMGTIYPGRGDTSYNQKFKGRVTMTRDTSTSTVYMELSSLRSEDTAVYYCARMGDNEYFDYWGQGTLVTVSS
VL: DIQMTQSPSSLSASVGDRVTITCRASGNIHNYLAWYQQKPGKAPKLLLYDAETLAEGVPSRFSGSGSGTDYTLTISSLQPEDFATYYCQHFWSTPYTFGGGTKVEIK
notes: Linked to the constant region of the IgG1 subtype
For the molecule B3, the binding result in the assay with human BDCA2-his protein [4] is given as “binds”.

B4: antibody 2391 (antibody, human IgG1, V domains shown)
VH: QVQLVQSGAEVKKPGASVKVSCKASGYTFTSYIIHWVRQAPGQGLEWMGTIYPGGGDTSYNQKFKGRVTMTRDTSTSTVYMELSSLRSEDTAVYYCARMGDNEYFDYWGQGTLVTVSS
VL: DIQMTQSPSSLSASVGDRVTITCRASGNIHNYLAWYQQKPGKAPKLLLYDAETLAEGVPSRFSGSGSGTDYTLTISSLQPEDFATYYCQHFWSTPYTFGGGTKVEIK
For B4, in the assay with human BDCA2-his protein [3], the Kd came to 0.0357 nM, the koff amounted to 0.000874 s⁻¹ and the kon was determined as 2.44e+07 M⁻¹ s⁻¹.

B5: 230IL-NG-DI (antibody, V domains shown)
VH: QVQLVQSGAEVKKPGASVKVSCKASGYTFTSYLIHWVRQAPGQGLEWMGTIYPGGGDTSYNQKFKGRVTMTRDTSTSTVYMELSSLRSEDTAVYYCARMGDNEYFDYWGQGTLVTVSS
VL: DIQMTQSPSSLSASVGDRVTITCRASGNIHNYLAWYQQKPGKAPKLLLYDAETLAIGVPSRFSGSGSGTDYTLTISSLQPEDFATYYCQHFWSTPYTFGGGTKVEIK
notes: as for B3
Regarding B5, the binding result with human BDCA2-his protein [4] was “binds”.

B6: 230-I33L (antibody, V domains shown)
VH: QVQLVQSGAEVKKPGASVKVSCKASGYTFTSYLIHWVRQAPGQGLEWMGTIYPGNGDTSYNQKFKGRVTMTRDTSTSTVYMELSSLRSEDTAVYYCARMGDNEYFDYWGQGTLVTVSS
VL: DIQMTQSPSSLSASVGDRVTITCRASGNIHNYLAWYQQKPGKAPKLLLYDAETLADGVPSRFSGSGSGTDYTLTISSLQPEDFATYYCQHFWSTPYTFGGGTKVEIK
notes: Single-point mutant of humanized antibody 230 (human IgG1/kappa)
Consider B6, for which, in the assay with human BDCA2-his protein [4], the binding result is on record as “binds”.

B7: 230-N55A (antibody, V domains shown)
VH: QVQLVQSGAEVKKPGASVKVSCKASGYTFTSYIIHWVRQAPGQGLEWMGTIYPGAGDTSYNQKFKGRVTMTRDTSTSTVYMELSSLRSEDTAVYYCARMGDNEYFDYWGQGTLVTVSS
VL: DIQMTQSPSSLSASVGDRVTITCRASGNIHNYLAWYQQKPGKAPKLLLYDAETLADGVPSRFSGSGSGTDYTLTISSLQPEDFATYYCQHFWSTPYTFGGGTKVEIK
notes: as for B6
Consider B7, for which the binding result in the assay with human BDCA2-his protein [4] is “binds”.

B8: 230-N55S (antibody, V domains shown)
VH: QVQLVQSGAEVKKPGASVKVSCKASGYTFTSYIIHWVRQAPGQGLEWMGTIYPGSGDTSYNQKFKGRVTMTRDTSTSTVYMELSSLRSEDTAVYYCARMGDNEYFDYWGQGTLVTVSS
VL: DIQMTQSPSSLSASVGDRVTITCRASGNIHNYLAWYQQKPGKAPKLLLYDAETLADGVPSRFSGSGSGTDYTLTISSLQPEDFATYYCQHFWSTPYTFGGGTKVEIK
notes: as for B6
As for B8, the binding result in the assay with human BDCA2-his protein [4] was “binds”.

B9: 230IL-DE (antibody, V domains shown)
VH: QVQLVQSGAEVKKPGASVKVSCKASGYTFTSYLIHWVRQAPGQGLEWMGTIYPGNGDTSYNQKFKGRVTMTRDTSTSTVYMELSSLRSEDTAVYYCARMGDNEYFDYWGQGTLVTVSS
VL: DIQMTQSPSSLSASVGDRVTITCRASGNIHNYLAWYQQKPGKAPKLLLYDAETLAEGVPSRFSGSGSGTDYTLTISSLQPEDFATYYCQHFWSTPYTFGGGTKVEIK
notes: as for B3
B9: the binding result with human BDCA2-his protein [4] is “binds”.

B10: 230IL-NR-DE (antibody, V domains shown)
VH: QVQLVQSGAEVKKPGASVKVSCKASGYTFTSYLIHWVRQAPGQGLEWMGTIYPGRGDTSYNQKFKGRVTMTRDTSTSTVYMELSSLRSEDTAVYYCARMGDNEYFDYWGQGTLVTVSS
VL: DIQMTQSPSSLSASVGDRVTITCRASGNIHNYLAWYQQKPGKAPKLLLYDAETLAEGVPSRFSGSGSGTDYTLTISSLQPEDFATYYCQHFWSTPYTFGGGTKVEIK
notes: as for B3
As to B10, the binding result in the assay with human BDCA2-his protein [4] is given as “binds”.

B11: 230NG-DI (antibody, V domains shown)
VH: QVQLVQSGAEVKKPGASVKVSCKASGYTFTSYIIHWVRQAPGQGLEWMGTIYPGGGDTSYNQKFKGRVTMTRDTSTSTVYMELSSLRSEDTAVYYCARMGDNEYFDYWGQGTLVTVSS
VL: DIQMTQSPSSLSASVGDRVTITCRASGNIHNYLAWYQQKPGKAPKLLLYDAETLAIGVPSRFSGSGSGTDYTLTISSLQPEDFATYYCQHFWSTPYTFGGGTKVEIK
notes: as for B3
As to B11, the binding result with human BDCA2-his protein [4] is “binds”.

B12: 230-N55G (antibody, V domains shown)
VH: QVQLVQSGAEVKKPGASVKVSCKASGYTFTSYIIHWVRQAPGQGLEWMGTIYPGGGDTSYNQKFKGRVTMTRDTSTSTVYMELSSLRSEDTAVYYCARMGDNEYFDYWGQGTLVTVSS
VL: DIQMTQSPSSLSASVGDRVTITCRASGNIHNYLAWYQQKPGKAPKLLLYDAETLADGVPSRFSGSGSGTDYTLTISSLQPEDFATYYCQHFWSTPYTFGGGTKVEIK
notes: as for B6
B12: the binding result with human BDCA2-his protein [4] is reported as “binds”.

B13: 230IL-DI (antibody, V domains shown)
VH: QVQLVQSGAEVKKPGASVKVSCKASGYTFTSYLIHWVRQAPGQGLEWMGTIYPGNGDTSYNQKFKGRVTMTRDTSTSTVYMELSSLRSEDTAVYYCARMGDNEYFDYWGQGTLVTVSS
VL: DIQMTQSPSSLSASVGDRVTITCRASGNIHNYLAWYQQKPGKAPKLLLYDAETLAIGVPSRFSGSGSGTDYTLTISSLQPEDFATYYCQHFWSTPYTFGGGTKVEIK
notes: as for B3
Turning to B13, in the assay with human BDCA2-his protein [4], the binding result was “binds”.

B14: 230NR-DI (antibody, V domains shown)
VH: QVQLVQSGAEVKKPGASVKVSCKASGYTFTSYIIHWVRQAPGQGLEWMGTIYPGRGDTSYNQKFKGRVTMTRDTSTSTVYMELSSLRSEDTAVYYCARMGDNEYFDYWGQGTLVTVSS
VL: DIQMTQSPSSLSASVGDRVTITCRASGNIHNYLAWYQQKPGKAPKLLLYDAETLAIGVPSRFSGSGSGTDYTLTISSLQPEDFATYYCQHFWSTPYTFGGGTKVEIK
notes: as for B3
Turning to B14, in the assay with human BDCA2-his protein [4], the binding result is reported as “binds”.

B15: antibody 230 mutant with light chain CDR2 DAETLAD changed to DAETLAE (antibody, V domains shown)
VH: QVQLVQSGAEVKKPGASVKVSCKASGYTFTSYIIHWVRQAPGQGLEWMGTIYPGNGDTSYNQKFKGRVTMTRDTSTSTVYMELSSLRSEDTAVYYCARMGDNEYFDYWGQGTLVTVSS
VL: DIQMTQSPSSLSASVGDRVTITCRASGNIHNYLAWYQQKPGKAPKLLLYDAETLAEGVPSRFSGSGSGTDYTLTISSLQPEDFATYYCQHFWSTPYTFGGGTKVEIK
notes: Single-point mutant of humanized antibody 230; also called 230 antibody-DE
Consider B15, for which the binding result with human BDCA2-his protein [4] is “binds”.

B16: antibody 230 mutant with light chain CDR2 DAETLAD changed to DAETLAI (antibody, V domains shown)
VH: QVQLVQSGAEVKKPGASVKVSCKASGYTFTSYIIHWVRQAPGQGLEWMGTIYPGNGDTSYNQKFKGRVTMTRDTSTSTVYMELSSLRSEDTAVYYCARMGDNEYFDYWGQGTLVTVSS
VL: DIQMTQSPSSLSASVGDRVTITCRASGNIHNYLAWYQQKPGKAPKLLLYDAETLAIGVPSRFSGSGSGTDYTLTISSLQPEDFATYYCQHFWSTPYTFGGGTKVEIK
notes: Single-point mutant of humanized antibody 230; also called 230 antibody-DI
On to B16, for which, in the assay with human BDCA2-his protein [4], the binding result was “binds”.

B17: 230IL-NR-DI (antibody, V domains shown)
VH: QVQLVQSGAEVKKPGASVKVSCKASGYTFTSYLIHWVRQAPGQGLEWMGTIYPGRGDTSYNQKFKGRVTMTRDTSTSTVYMELSSLRSEDTAVYYCARMGDNEYFDYWGQGTLVTVSS
VL: DIQMTQSPSSLSASVGDRVTITCRASGNIHNYLAWYQQKPGKAPKLLLYDAETLAIGVPSRFSGSGSGTDYTLTISSLQPEDFATYYCQHFWSTPYTFGGGTKVEIK
notes: as for B3
With B17, the binding result in the assay with human BDCA2-his protein [4] is reported as “binds”.

B18: 230-N55R (antibody, V domains shown)
VH: QVQLVQSGAEVKKPGASVKVSCKASGYTFTSYIIHWVRQAPGQGLEWMGTIYPGRGDTSYNQKFKGRVTMTRDTSTSTVYMELSSLRSEDTAVYYCARMGDNEYFDYWGQGTLVTVSS
VL: DIQMTQSPSSLSASVGDRVTITCRASGNIHNYLAWYQQKPGKAPKLLLYDAETLADGVPSRFSGSGSGTDYTLTISSLQPEDFATYYCQHFWSTPYTFGGGTKVEIK
notes: as for B6
As for B18, in the assay with human BDCA2-his protein [4], the binding result is given as “binds”.

The EC50 is the concentration at which the effect is half-maximal. A high value points to a need for much substance. One may read the Kd as the equilibrium constant for the complex coming apart. A higher Kd goes with lower affinity. For orientation: koff means a measure of how fast the partners let go of each other. A higher koff goes with fast dissociation. The kon is the rate constant with which the complex forms. High values mean faster complex formation, low ones slower complex formation.
